{"source": "the supplement of paper PMC9112550", "about": "“Optimization of the antimicrobial peptide Bac7 by deep mutational scanning” (BMC Biology, 2022);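 also: peptides expressed intracellularly from a pBAD plasmid library in pooled LB shake-flask culture, induced with 0.3% L-arabinose, DNA abundance read by NGS, three biological replicates, DESeq2 with apeglm shrinkage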", "data": [{"tested_on": "Escherichia coli TOP10", "assay": "shrunken log2 fold change of peptide-encoding DNA abundance (4.5 h post-induction vs induction); higher = less antimicrobial activity (less host growth inhibition)", "details": "time post-induction: 4.5 h; library: site-saturation at positions 5, 18, 19, 20", "values": [{"sequence": "RRIRHRPPRLPRPRPRPDMEPRP", "shrunken log2 fold change": -0.336}, {"sequence": "RRIRERPPRLPRPRPRPDDDPRP", "shrunken log2 fold change": 0.00371}, {"sequence": "RRIRLRPPRLPRPRPRPHWDPRP", "shrunken log2 fold change": 0.176}, {"sequence": "RRIRIRPPRLPRPRPRPLETPRP", "shrunken log2 fold change": -0.0471}, {"sequence": "RRIRCRPPRLPRPRPRPCGWPRP", "shrunken log2 fold change": 0.456}, {"sequence": "RRIRDRPPRLPRPRPRPCLAPRP", "shrunken log2 fold change": 0.291}, {"sequence": "RRIRARPPRLPRPRPRPGPSPRP", "shrunken log2 fold change": 0.6}, {"sequence": "RRIRKRPPRLPRPRPRPMTTPRP", "shrunken log2 fold change": 0.31}, {"sequence": "RRIRSRPPRLPRPRPRPADNPRP", "shrunken log2 fold change": 0.00328}, {"sequence": "RRIRLRPPRLPRPRPRPMQNPRP", "shrunken log2 fold change": 0.141}, {"sequence": "RRIRKRPPRLPRPRPRPKRAPRP", "shrunken log2 fold change": 1.04}, {"sequence": "RRIRGRPPRLPRPRPRPGYQPRP", "shrunken log2 fold change": -0.0619}, {"sequence": "RRIRFRPPRLPRPRPRPKDGPRP", "shrunken log2 fold change": -0.184}, {"sequence": "RRIRTRPPRLPRPRPRPYLCPRP", "shrunken log2 fold change": -0.189}, {"sequence": "RRIRCRPPRLPRPRPRPFKWPRP", "shrunken log2 fold change": -0.115}, {"sequence": "RRIRNRPPRLPRPRPRPMWLPRP", "shrunken log2 fold change": 0.0773}, {"sequence": "RRIRLRPPRLPRPRPRPSCDPRP", "shrunken log2 fold change": -0.417}, {"sequence": "RRIRVRPPRLPRPRPRPTIHPRP", "shrunken log2 fold change": -0.239}, {"sequence": "RRIRWRPPRLPRPRPRPYQRPRP", "shrunken log2 fold change": -0.85}, {"sequence": "RRIRQRPPRLPRPRPRPQCRPRP", "shrunken log2 fold change": 0.0527}, {"sequence": "RRIRFRPPRLPRPRPRPYMEPRP", "shrunken log2 fold change": -0.0116}, {"sequence": "RRIRTRPPRLPRPRPRPACWPRP", "shrunken log2 fold change": 0.281}, {"sequence": "RRIRHRPPRLPRPRPRPWGFPRP", "shrunken log2 fold change": -0.0192}, {"sequence": "RRIRGRPPRLPRPRPRPWRCPRP", "shrunken log2 fold change": 0.0546}, {"sequence": "RRIRHRPPRLPRPRPRPHIGPRP", "shrunken log2 fold change": -0.0123}, {"sequence": "RRIRWRPPRLPRPRPRPPYWPRP", "shrunken log2 fold change": 0.204}, {"sequence": "RRIRWRPPRLPRPRPRPSGDPRP", "shrunken log2 fold change": 0.537}, {"sequence": "RRIRKRPPRLPRPRPRPLKQPRP", "shrunken log2 fold change": 0.146}, {"sequence": "RRIRTRPPRLPRPRPRPQSLPRP", "shrunken log2 fold change": -0.0105}, {"sequence": "RRIRIRPPRLPRPRPRPSGPPRP", "shrunken log2 fold change": -0.21}, {"sequence": "RRIRNRPPRLPRPRPRPYQDPRP", "shrunken log2 fold change": -0.064}, {"sequence": "RRIRQRPPRLPRPRPRPVMEPRP", "shrunken log2 fold change": -0.028}, {"sequence": "RRIRIRPPRLPRPRPRPVDNPRP", "shrunken log2 fold change": -0.0726}, {"sequence": "RRIRFRPPRLPRPRPRPWMTPRP", "shrunken log2 fold change": 0.0687}, {"sequence": "RRIRNRPPRLPRPRPRPTAIPRP", "shrunken log2 fold change": -0.072}, {"sequence": "RRIRHRPPRLPRPRPRPADRPRP", "shrunken log2 fold change": -0.0209}, {"sequence": "RRIRRRPPRLPRPRPRPTAWPRP", "shrunken log2 fold change": 0.288}, {"sequence": "RRIRCRPPRLPRPRPRPWCEPRP", "shrunken log2 fold change": -0.349}, {"sequence": "RRIRARPPRLPRPRPRPKYFPRP", "shrunken log2 fold change": 0.0918}, {"sequence": "RRIRMRPPRLPRPRPRPTHRPRP", "shrunken log2 fold change": 0.929}, {"sequence": "RRIRRRPPRLPRPRPRPVYYPRP", "shrunken log2 fold change": -0.223}, {"sequence": "RRIRSRPPRLPRPRPRPMKFPRP", "shrunken log2 fold change": -0.0589}, {"sequence": "RRIRLRPPRLPRPRPRPVHRPRP", "shrunken log2 fold change": 0.119}, {"sequence": "RRIRPRPPRLPRPRPRPLDAPRP", "shrunken log2 fold change": 0.131}, {"sequence": "RRIRCRPPRLPRPRPRPSCIPRP", "shrunken log2 fold change": -0.253}, {"sequence": "RRIRRRPPRLPRPRPRPHQWPRP", "shrunken log2 fold change": 0.144}, {"sequence": "RRIRTRPPRLPRPRPRPPYIPRP", "shrunken log2 fold change": -0.694}, {"sequence": "RRIRHRPPRLPRPRPRPGALPRP", "shrunken log2 fold change": -0.00348}, {"sequence": "RRIRFRPPRLPRPRPRPCDTPRP", "shrunken log2 fold change": -0.09}, {"sequence": "RRIRDRPPRLPRPRPRPYSHPRP", "shrunken log2 fold change": -0.471}, {"sequence": "RRIRSRPPRLPRPRPRPYIGPRP", "shrunken log2 fold change": -0.121}, {"sequence": "RRIRKRPPRLPRPRPRPETWPRP", "shrunken log2 fold change": 0.0991}, {"sequence": "RRIRCRPPRLPRPRPRPFTIPRP", "shrunken log2 fold change": -0.0284}, {"sequence": "RRIRARPPRLPRPRPRPYAKPRP", "shrunken log2 fold change": 0.249}, {"sequence": "RRIRCRPPRLPRPRPRPREFPRP", "shrunken log2 fold change": 0.339}, {"sequence": "RRIRARPPRLPRPRPRPADKPRP", "shrunken log2 fold change": 0.197}, {"sequence": "RRIRWRPPRLPRPRPRPKCYPRP", "shrunken log2 fold change": -0.0376}, {"sequence": "RRIRCRPPRLPRPRPRPTVQPRP", "shrunken log2 fold change": 0.0608}, {"sequence": "RRIRYRPPRLPRPRPRPQHNPRP", "shrunken log2 fold change": -1.13}, {"sequence": "RRIRARPPRLPRPRPRPNGMPRP", "shrunken log2 fold change": -0.0336}, {"sequence": "RRIRRRPPRLPRPRPRPMRQPRP", "shrunken log2 fold change": 0.202}, {"sequence": "RRIRHRPPRLPRPRPRPVQEPRP", "shrunken log2 fold change": -0.0785}, {"sequence": "RRIRMRPPRLPRPRPRPYQWPRP", "shrunken log2 fold change": -0.055}, {"sequence": "RRIRDRPPRLPRPRPRPMTNPRP", "shrunken log2 fold change": -0.184}, {"sequence": "RRIRQRPPRLPRPRPRPLWEPRP", "shrunken log2 fold change": 0.025}, {"sequence": "RRIRRRPPRLPRPRPRPGHQPRP", "shrunken log2 fold change": 0.342}, {"sequence": "RRIRIRPPRLPRPRPRPGAPPRP", "shrunken log2 fold change": 0.416}, {"sequence": "RRIRSRPPRLPRPRPRPWVEPRP", "shrunken log2 fold change": -0.214}, {"sequence": "RRIRSRPPRLPRPRPRPPVNPRP", "shrunken log2 fold change": -0.489}, {"sequence": "RRIRYRPPRLPRPRPRPKEMPRP", "shrunken log2 fold change": -0.259}, {"sequence": "RRIRIRPPRLPRPRPRPNNEPRP", "shrunken log2 fold change": -0.597}, {"sequence": "RRIRLRPPRLPRPRPRPHEWPRP", "shrunken log2 fold change": -0.0141}, {"sequence": "RRIRDRPPRLPRPRPRPMEHPRP", "shrunken log2 fold change": 0.208}, {"sequence": "RRIRDRPPRLPRPRPRPQRDPRP", "shrunken log2 fold change": 0.0917}, {"sequence": "RRIRRRPPRLPRPRPRPFQQPRP", "shrunken log2 fold change": 0.282}, {"sequence": "RRIRYRPPRLPRPRPRPGMDPRP", "shrunken log2 fold change": -0.299}, {"sequence": "RRIRMRPPRLPRPRPRPTGVPRP", "shrunken log2 fold change": 0.224}, {"sequence": "RRIRARPPRLPRPRPRPCNGPRP", "shrunken log2 fold change": -0.139}, {"sequence": "RRIRMRPPRLPRPRPRPVIYPRP", "shrunken log2 fold change": -0.0966}, {"sequence": "RRIRKRPPRLPRPRPRPLHGPRP", "shrunken log2 fold change": -0.0122}, {"sequence": "RRIRFRPPRLPRPRPRPSALPRP", "shrunken log2 fold change": 0.0201}, {"sequence": "RRIRSRPPRLPRPRPRPTEHPRP", "shrunken log2 fold change": -0.0545}, {"sequence": "RRIRMRPPRLPRPRPRPAIPPRP", "shrunken log2 fold change": 0.0268}, {"sequence": "RRIRWRPPRLPRPRPRPVMMPRP", "shrunken log2 fold change": -0.385}, {"sequence": "RRIRIRPPRLPRPRPRPSHAPRP", "shrunken log2 fold change": -0.283}, {"sequence": "RRIRDRPPRLPRPRPRPAETPRP", "shrunken log2 fold change": 0.0806}, {"sequence": "RRIRWRPPRLPRPRPRPTSPPRP", "shrunken log2 fold change": 0.217}, {"sequence": "RRIRLRPPRLPRPRPRPSSQPRP", "shrunken log2 fold change": -0.0758}, {"sequence": "RRIRCRPPRLPRPRPRPRPWPRP", "shrunken log2 fold change": 0.432}, {"sequence": "RRIRGRPPRLPRPRPRPEKEPRP", "shrunken log2 fold change": 0.0374}, {"sequence": "RRIRNRPPRLPRPRPRPNWRPRP", "shrunken log2 fold change": 0.216}]}]}
